Source: US20200086139A1, “COMBINATION THERAPY FOR THE TREATMENT OF GLIOBLASTOMA” (Genentech, Inc., priority 2012, published 2020)

What was measured:
[1] = tested on: newly diagnosed glioblastoma; test: AVAglio Phase III trial, efficacy (PFS, ORR, pseudoprogression, steroid discontinuation); format: in vivo, human
Excerpt: (§1) A randomized, double blind, placebo controlled multicenter Phase III trial of bevacizumab, temozolomide and radiotherapy, followed by bevacizumab and temozolomide versus placebo, temozolomide and radiotherapy followed by placebo and temozolomide in patients with newly diagnosed glioblastoma (AVAglio)
(§2) The AVAglio trial evaluated the efficacy and safety of bevacizumab in combination temozolomide and radiotherapy for newly diagnosed glioblastoma. This study was designed as a prospective, randomized, double blind, placebo controlled Phase III evaluation of bevacizumab plus chemotherapy versus chemotherapy alone. To be eligible, patients must have newly diagnosed glioblastoma with a tissue diagnosis that has been established following either a surgical resection or biopsy. By adding bevacizumab to chemotherapy and radiotherapy, the AVAglio trial aimed to improve overall survival (OS) and progression-free survival (PFS) for this group of patients who have limited therapeutic options and face a particularly poor prognosis. The primary objective was to compare OS and PFS of patients randomised to temozolomide and radiotherapy only or to temozolomide and radiotherapy plus bevacizumab.
(§3) Study Design—This trial consisted of three phases (Concurrent, Maintenance, and Monotherapy) and two (2) treatment arms: temozolomide and radiotherapy (Arm 1) and temozolomide and radiotherapy plus bevacizumab (Arm 2). Patients were randomly assigned (1:1) to either arm, see FIG. 1.
(§4) Eligible patients received 2 Gy radiotherapy 5 days a week for 6 weeks and 75 mg/m^2 temozolomide (TMZ) orally daily for 6 weeks from the first day to the last day of radiotherapy. After a 4 week treatment break, eligible patients received 6 cycles of 150-200 mg/m^2 TMZ on days 1-5 of a every 4 weeks schedule in combination with 10 mg/kg placebo IV every 2 weeks. TMZ was administered orally starting with a 150 mg/m^2 dose that could be escalated. Placebo monotherapy (15 mg/kg every 3 weeks) was then continued until disease progression.
as §4, with “TMZ” for “temozolomide (TMZ)”, “radiotherapy in combination with 10 mg/kg bevacizumab IV every 2 weeks.” for “radiotherapy.”, “bevacizumab” for “placebo”, “Bevacizumab” for “Placebo”
(§5) The initial bevacizumab infusion was over 90 minutes, with subsequent infusions over 60 minutes and then 30 minutes, as tolerated. Bevacizumab was administered on the day of the last day of radiotherapy and TMZ, i.e., the day before the start of the TMZ treatment break.
Analyses of PFS was based on tumor assessments MacDonald Response Criteria (modified WHO criteria) using MRI of the brain and a neurological evaluation as described in Macdonald et al., Response criteria for phase II studies of supratentorial malignant glioma. J Clin Oncol 1990; 8:1277-80.
Tumor assessments were performed at baseline, at the end of the 4 week treatment break, then then every 8 weeks.
Patients≥18 years of age and with newly diagnosed supratentorial Glioblastoma (GBM) with a tissue diagnosis that has been established following either a surgical resection or biopsy. This includes treatment-naïve—(chemotherapy and radiotherapy)—patients with prior diagnosis of a lower grade astrocytoma that has been upgraded to a histologically verified GBM. Patients must have WHO performance status≤2.
Eligible patients had newly diagnosed glioblastoma (WHO performance status≤2). […]

[2] = AVAglio Phase III trial, safety (adverse events); format: in vivo, human; design: unit not given here
Excerpt: as §1, §2, §3, §4
as §4, with “TMZ” for “temozolomide (TMZ)”, “radiotherapy in combination with 10 mg/kg bevacizumab IV every 2 weeks.” for “radiotherapy.”, “bevacizumab” for “placebo”, “Bevacizumab” for “Placebo”
as §5
Patients≥18 years of age and with newly diagnosed supratentorial Glioblastoma (GBM) with a tissue diagnosis that has been established following either a surgical resection or biopsy. […] Patients must have WHO performance status≤2.
Eligible patients had newly diagnosed glioblastoma (WHO performance status≤2). After surgical resection, patients were randomized to concurrent therapy with temozolomide with radiation and placebo or temozolomide with radiation and bevacizumab followed by a 28 day treatment break, maintenance therapy with 10 mg/kg bevacizumab or placebo administered every two weeks in combination with temozolomide, and monotherapy with 15 mg/kg bevacizumab or placebo was administered every three weeks until disease progression or unacceptable toxicity. Patients in the placebo arm were treated at the investigators discretion at progression.

With “bevacizumab + RT + T: Arm 2 of AVAglio: bevacizumab (recombinant humanized anti-VEGF monoclonal antibody) with temozolomide and radiotherapy” as the substance, how does the “Best ORR: Difference, % (95% CI)” value ([1]; Bv + T/RT versus P + T/RT, p =< 0.001) read?
The value was 20.4 (13.9-26.8) %.

What about the “Events, %” value ([1]; PFS events, percent of patients) of the same substance?
The value was 77.3%.

What about the “HR (95% CI)” value ([1]; PFS hazard ratio, bevacizumab + RT + T versus placebo + RT + T, log-rank p < 0.0001) of the same substance?
Its value is 0.64 (0.55-0.74).

And the “effect on ORR (in words)” value ([1]; addition to first line temozolomide plus radiotherapy)?
The value was “significantly improves ORR”.

And the “Potential PsPD, %” value ([1]; end of treatment break)?
The value was 2.6%.

And the “PFS (months)” value ([1]; median progression-free survival, MacDonald Response Criteria, patients with newly diagnosed glioblastoma)?
Its value is 10.6 months.

And the “Best ORR: % (95% CI)” value ([1]; objective response rate)?
The value was 38.4 (33.5-43.5) %.

What about the “patients on steroids at baseline able to discontinue steroids for part of their progression-free survival interval” value ([1]; patients on steroids at baseline) of the same substance?
The value was 66%.

What about the “Confirmed PsPD, %” value ([1]; post-2nd maintenance cycle) of the same substance?
The value was 2.2%.

What about the “Rejected PsPD, %” value ([1]; post-2nd maintenance cycle) of the same substance?
The value was 0.2%.

What about the “improvement in PFS (in words)” value ([1]; versus chemotherapy in combination with radiotherapy) of the same substance?
Its value is “statistically significant and clinically meaningful improvement in PFS”.

What about the “Thromboembolic event Arterial (all grade)” value [2] of the same substance?
The value was 5.

And the “Thromboembolic event Venous (Grade ≥3)” value [2]?
Its value is 7.3.

What about the “CHF (grade ≥3)” value ([2]; adverse event) of the same substance?
Its value is 0.4.

What about the “Fistula/abscess (all grade)” value ([2]; adverse event) of the same substance?
The value was 0.6.

What about the “Hypertension (Grade ≥3)” value ([2]; adverse event) of the same substance?
Its value is 10.3.

What about the “PRES (Posterior reversible encephalopathy syndrome) (all grade)” value ([2]; adverse event) of the same substance?
The value was 0.

What about the “Proteinuria (Grade ≥3)” value ([2]; adverse event) of the same substance?
The value was 3.7.

What about the “Bleeding (Grade ≥3) Cerebral Hemorrhage” value ([2]; adverse event, Grade ≥3) of the same substance?
The value was 1.5.

And the “Bleeding (Grade ≥3) Mucocutaneous bleeding” value ([2]; adverse event, Grade ≥3)?
Its value is 0.4.

What about the “Bleeding (Grade ≥3) Other” value ([2]; adverse event, Grade ≥3) of the same substance?
The value was 0.6.

What about the “Bleeding (all grade) Cerebral Hemorrhage” value ([2]; adverse event, all grade) of the same substance?
Its value is 2.6.

What about the “Bleeding (all grade) Mucocutaneous bleeding” value ([2]; adverse event, all grade) of the same substance?
Its value is 26.7.

What about the “Bleeding (all grade) Other” value ([2]; adverse event, all grade) of the same substance?
The value was 11.6.
